# According to publication PMC10411777, “Analytical sameness methodology for the evaluation of structural, physicochemical, and biological characteristics of Armlupeg: A pegfilgrastim biosimilar case study” (PLOS ONE, 2023):
# B1: Armlupeg (Lupin’s Pegfilgrastim) (ligand, human)
# chain: MTPLGPASSLPQSFLLKCLEQVRKIQGDGAALQEKLCATYKLCHPEELVLLGHSLGIPWAPLSSCPSQALQLAGCLSQLHSGLFLYQGLLQALEGISPELGPTLDTLQLDVADFATTIWQQMEELGMAPALQPTQGAMPAFASAFQRRAGGVLVASHLQSFLEVSYRVLRHLAQP
# modifications: 20 kDa monomethoxy polyethylene glycol (PEG) covalently bound to the N-terminal methionine residue
# notes: N-terminal methionine residue of filgrastim, named in words; it carries the PEG; Filgrastim: recombinant human granulocyte colony-stimulating factor (G-CSF), 175 amino acids with the N-terminal methionine; 18 lots were used for SPR; also called proposed biosimilar; source: Armlupeg drug product lots (Lupin Limited)
# Target: G-CSF receptor (UniProt Q99062 25-836)
# Sequence (Q99062 25-836): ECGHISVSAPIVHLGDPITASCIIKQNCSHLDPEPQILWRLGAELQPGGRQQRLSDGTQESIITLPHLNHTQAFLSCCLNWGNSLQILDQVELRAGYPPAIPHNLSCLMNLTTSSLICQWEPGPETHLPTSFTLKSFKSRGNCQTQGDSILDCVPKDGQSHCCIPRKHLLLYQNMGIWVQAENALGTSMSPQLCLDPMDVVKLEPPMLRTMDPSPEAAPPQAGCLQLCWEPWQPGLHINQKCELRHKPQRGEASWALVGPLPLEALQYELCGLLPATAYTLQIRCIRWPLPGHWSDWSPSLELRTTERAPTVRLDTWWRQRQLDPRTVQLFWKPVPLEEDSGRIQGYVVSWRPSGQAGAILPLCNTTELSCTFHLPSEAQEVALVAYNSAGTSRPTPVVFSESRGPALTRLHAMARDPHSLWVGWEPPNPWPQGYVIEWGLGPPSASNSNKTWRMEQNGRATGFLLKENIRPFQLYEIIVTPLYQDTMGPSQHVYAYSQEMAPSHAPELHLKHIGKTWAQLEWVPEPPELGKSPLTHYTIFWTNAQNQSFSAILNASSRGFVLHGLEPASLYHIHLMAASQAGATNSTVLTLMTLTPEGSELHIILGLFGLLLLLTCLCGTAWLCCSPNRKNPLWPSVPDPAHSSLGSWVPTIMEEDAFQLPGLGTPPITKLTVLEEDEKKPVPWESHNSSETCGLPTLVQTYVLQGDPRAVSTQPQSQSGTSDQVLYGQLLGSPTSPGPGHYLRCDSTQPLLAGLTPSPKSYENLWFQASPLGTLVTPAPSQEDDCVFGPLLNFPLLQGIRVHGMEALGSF
# Assay: SPR; BIAcore T200; G-CSF receptor immobilised on a CM5 chip at 2000 RU by amine coupling; pegfilgrastim injected at seven concentrations from 0.08 to 5 nM; 1:1 binding model; KD from kinetics; triplicates for each batch
# Details: both partners purified
binder,measurement,value
B1,Kd,0.0512 to 0.118 nM
